Consider one molecule from US20220025344A1 (Novartis, published 2022).

In test [1] the target is T1, Recombinant human LPL (mature human lipoprotein lipase, amino acids 28-475) (human, UniProt P06858 28-475).
T1 construct: also called LPL alone; hLPL
T1 sequence: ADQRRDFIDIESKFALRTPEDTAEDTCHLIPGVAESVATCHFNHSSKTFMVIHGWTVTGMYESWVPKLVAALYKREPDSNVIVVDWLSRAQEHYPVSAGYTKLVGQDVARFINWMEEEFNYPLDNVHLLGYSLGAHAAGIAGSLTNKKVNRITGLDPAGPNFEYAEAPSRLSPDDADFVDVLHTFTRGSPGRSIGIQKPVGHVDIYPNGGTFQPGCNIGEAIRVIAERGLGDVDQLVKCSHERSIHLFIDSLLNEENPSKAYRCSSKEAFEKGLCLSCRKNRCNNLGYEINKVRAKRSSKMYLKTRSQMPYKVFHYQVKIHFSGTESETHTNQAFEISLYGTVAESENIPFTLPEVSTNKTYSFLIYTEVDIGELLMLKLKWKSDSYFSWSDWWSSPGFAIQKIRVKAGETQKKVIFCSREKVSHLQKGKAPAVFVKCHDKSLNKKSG
Nature of the test: crystal structure of the complex (data not shown).

For the next test, the target named is T2, His6-Human LPL(28-475) (human, UniProt P06858 28-475).
T2 construct: also called N-terminally 6-His tagged LPL
T2 sequence: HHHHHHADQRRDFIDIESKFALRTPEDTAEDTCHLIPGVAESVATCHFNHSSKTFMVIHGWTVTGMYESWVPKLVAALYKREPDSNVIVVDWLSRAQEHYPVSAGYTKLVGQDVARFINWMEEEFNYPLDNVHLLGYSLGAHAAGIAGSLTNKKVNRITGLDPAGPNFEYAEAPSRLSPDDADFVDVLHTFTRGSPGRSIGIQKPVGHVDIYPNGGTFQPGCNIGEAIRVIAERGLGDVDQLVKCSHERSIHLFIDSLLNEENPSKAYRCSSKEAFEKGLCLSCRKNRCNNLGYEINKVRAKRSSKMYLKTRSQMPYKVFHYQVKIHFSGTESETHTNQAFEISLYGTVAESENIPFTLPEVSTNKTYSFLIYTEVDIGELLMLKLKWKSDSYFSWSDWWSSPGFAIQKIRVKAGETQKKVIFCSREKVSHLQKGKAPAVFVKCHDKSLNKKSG
Put plainly: Ni-affinity co-purification of untagged GPIHBP1 with N-terminally 6-His tagged LPL (SDS-PAGE), then size exclusion chromatography against MW standards. An excerpt:
Initially an attempt was made to purify LPL protein by itself. In order to aid this purification, a variety of LPL constructs were synthesized that were either untagged or had N- or C-terminal tags. These LPL constructs were expressed in mammalian cells and purified using heparin chromatography or Ni-affinity chromatography. […] Co-expression of the purified soluble form of GPIHBP1 with LPL protected LPL against spontaneous inactivation (data not shown). GPIHBP1 was then co-expressed with LPL in the presence of LMF1 in the following manner: N-terminally 6-His tagged LPL, untagged GPIHBP1, and LMF1 were co-transfected in a ratio of 3:1:1 into HEK293T cells. The expressed protein complex was captured using Ni-affinity chromatography. […] Importantly, the presence of GPIHBP1 and LMF1 generated an LPL/GPIHBP1 complex that was homogenous and eluted as a ˜75 KDa complex during size exclusion chromatography (FIG. 1, panel C). This agreed well with the predicted molecular weight of a 1:1 LPL/GPHBP1 complex.
In general terms: Size exclusion chromatography separates by hydrodynamic size, large species first.

B1: Human soluble GPIHBP1 (aa 21-151) (receptor)
chain: QTQQEEEEEDEDHGPDDYDEEDEDEVEEEETNRLPGGRSRVLLRCYTCKSLPRDERCNLTQNCSHGQTCTTLIAHGNTESGLLTTHSTWCTDSCQPITKTVEGTQVTMTCCQSSLCNVPPWQSSRVQDPTG
notes: also called untagged GPIHBP1; solGPIHBP1
B1: the binding result (in test [1]; in the test with His6-Human LPL(28-475)) was “binds” each time.
